Measured values reported in article PMC5131300, “Discovery and structural characterisation of new fold type IV-transaminases exemplify the diversity of this enzyme fold” (Scientific Reports, 2016).

Biological target: CpuTA1, fold type IV transaminase from Curtobacterium pusillum (Curtobacterium pusillum)
Test: crystal structure; CpuTA1 12 mg/mL with 5 mM PLP, co-crystallised with 10 mM 3-amino benzoic acid, 2.4 M sodium malonate pH 7.0, micro-seeding, 289 K; two chains in the asymmetric unit; interface analysed with PDBePISA

CpuTA1, fold type IV transaminase from Curtobacterium pusillum (enzyme)
stoichiometry N: 2
